Tests used:
Assay in all cases: Crosslinking/co-immunoprecipitation/mass spectrometry (TMT quantitative proteomics) to identify irisin receptors
Assay type in all cases: binding
[1] = molecular target: T1, MLO-Y4 cell surface proteins (Mus musculus, UniProt O70404); settings: co-precipitated protein Vamp8 (VAMP8_MOUSE)
T1 construct: endogenous in cells; host or cells: MLO-Y4
T1 sequence (O70404 1-101): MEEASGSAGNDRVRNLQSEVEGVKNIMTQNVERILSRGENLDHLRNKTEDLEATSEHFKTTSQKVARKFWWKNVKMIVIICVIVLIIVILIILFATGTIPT
Outline: (§1)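 Relative protein abundance came from 6-plex TMT MS3 quantitation on an Orbitrap Fusion Lumos, after in-gel trypsin digestion of Coomassie-stained SDS-PAGE lanes. Input was a Ni-NTA pulldown (250 mM imidazole elution) of lysates from murine MLO-Y4 cells. These cells were treated on ice with His-tagged irisin or adipsin (10 nM, 20 min) in serum-free medium, then crosslinked with 1.5 mM DTSSP for 30 min.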

[2] = molecular target: T2, MLO-Y4 cell surface proteins (Mus musculus, UniProt P09671); settings: co-precipitated protein Sod2 (SODM_MOUSE)
T2 construct: endogenous in cells; host or cells: MLO-Y4
T2 sequence (P09671 25-222): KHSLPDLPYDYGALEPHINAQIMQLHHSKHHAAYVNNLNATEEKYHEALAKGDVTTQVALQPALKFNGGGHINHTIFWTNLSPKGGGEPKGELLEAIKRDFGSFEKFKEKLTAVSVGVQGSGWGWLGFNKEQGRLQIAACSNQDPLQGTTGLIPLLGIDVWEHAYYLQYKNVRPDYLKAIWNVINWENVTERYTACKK
Outline: as §1

[3] = molecular target: T3, MLO-Y4 cell surface proteins (Mus musculus, UniProt P39654); settings: co-precipitated protein Alox15 (LOX15_MOUSE)
T3 construct: endogenous in cells; host or cells: MLO-Y4
T3 sequence (P39654 1-663): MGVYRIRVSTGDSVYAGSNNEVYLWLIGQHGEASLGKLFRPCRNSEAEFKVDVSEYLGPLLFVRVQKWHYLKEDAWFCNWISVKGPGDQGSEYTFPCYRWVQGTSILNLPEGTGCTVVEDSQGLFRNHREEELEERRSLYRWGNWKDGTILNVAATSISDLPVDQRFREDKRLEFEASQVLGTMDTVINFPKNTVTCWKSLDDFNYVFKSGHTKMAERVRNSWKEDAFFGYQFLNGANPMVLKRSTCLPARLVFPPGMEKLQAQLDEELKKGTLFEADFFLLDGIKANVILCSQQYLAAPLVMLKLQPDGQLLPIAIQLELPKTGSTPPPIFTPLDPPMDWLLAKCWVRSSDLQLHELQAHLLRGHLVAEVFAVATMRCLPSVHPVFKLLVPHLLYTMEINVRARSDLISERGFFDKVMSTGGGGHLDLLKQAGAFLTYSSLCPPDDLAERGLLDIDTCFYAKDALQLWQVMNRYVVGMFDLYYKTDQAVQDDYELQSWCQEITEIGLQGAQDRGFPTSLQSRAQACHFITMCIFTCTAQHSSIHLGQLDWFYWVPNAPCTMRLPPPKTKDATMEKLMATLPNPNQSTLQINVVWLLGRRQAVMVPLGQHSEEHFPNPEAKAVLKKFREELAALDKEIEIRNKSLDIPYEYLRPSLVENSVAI
Outline: as §1

- TMT signal-to-noise ratio [1]: 300.176
- TMT signal-to-noise ratio [2]: 1031.93
- TMT signal-to-noise ratio [3]: 141.336
Substance: adipsin
